According to patent publication US20050064507A1, “Determining kinase specificity” (priority 2003, published 2005):

Tests used:
PKC-delta = molecular target: T1, PKC-delta (Homo sapiens, UniProt Q05655); experiment: In vitro kinase assay: peptide phosphorylation by PKC-delta; type: biochemical; conditions: for PKC delta phosphorylation: normalized to best substrate;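 on PKC delta phosphorylation: peptide concentration 10 nM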
T1 construct: purchased Calbiochem
Procedure, shortened: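 Biotin-Lys-dansyl-Lys-Pro-Pro-Gly-linked proteomic peptides (12–21-residue core) phosphorylated by PKC-delta in HEPES/Triton/CaCl2/MgCl2 buffer with phosphatidyl serine and PMA, 100 μM [γ-32P]ATP, 30° C., ~10 min, stoichiometry ≤5%; streptavidin-plate capture. Signal normalized as % of best peptide substrate.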

PKC-zeta = molecular target: T2, PKC-zeta (Homo sapiens, UniProt Q05513); experiment: In vitro kinase assay: peptide phosphorylation by PKC-zeta; type: biochemical; conditions: for PKC-zeta phosphorylation: normalized to best substrate
T2 construct: purchased Calbiochem
T2 sequence (Q05513 1-592): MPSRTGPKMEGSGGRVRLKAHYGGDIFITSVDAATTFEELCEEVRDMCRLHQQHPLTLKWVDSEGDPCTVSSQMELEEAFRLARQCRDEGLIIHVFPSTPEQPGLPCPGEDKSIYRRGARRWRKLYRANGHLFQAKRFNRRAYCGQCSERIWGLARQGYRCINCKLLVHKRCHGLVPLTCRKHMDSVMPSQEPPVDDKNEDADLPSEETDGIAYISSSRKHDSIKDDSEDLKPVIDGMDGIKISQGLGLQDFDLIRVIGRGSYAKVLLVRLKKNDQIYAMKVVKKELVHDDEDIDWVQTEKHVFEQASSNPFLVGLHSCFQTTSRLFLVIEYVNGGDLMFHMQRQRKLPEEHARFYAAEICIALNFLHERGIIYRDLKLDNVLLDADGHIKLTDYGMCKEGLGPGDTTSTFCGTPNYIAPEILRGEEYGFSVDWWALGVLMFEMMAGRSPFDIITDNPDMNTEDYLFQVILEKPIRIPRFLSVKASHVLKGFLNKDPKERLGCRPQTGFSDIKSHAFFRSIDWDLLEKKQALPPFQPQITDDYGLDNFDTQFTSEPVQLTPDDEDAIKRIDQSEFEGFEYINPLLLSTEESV
Description: Catalytically active preparations of the kinases of interest were either purchased or prepared. Purchased and tested active kinase preparations including the following: PKC-alpha, PKC-delta, PKC-epsilon, PKC-zeta, PKC-mu, PKA, PKG from Calbiochem, ROK alpha/ROCK-II, active from Upstate Biotechnology, and AKT1 from Panvera.
The conditions of the kinase assay and the amount of active kinase used varied with the kinase and with the accuracy needed. For a typical experiment, 5-20 ng of kinase was used per well and each peptide pool was assayed in duplicate wells. Note that the absolute amount of kinase used was not usually a critical parameter, because the desired information related to specificity of the kinase not its absolute activity, and robustness of the assay depends on comparisons of the same amount of kinase on different peptides. The combination of kinase concentration and assay duration was modified to assure that the stoichiometry of peptide phosphorylation never exceeded 5%. The choice of kinase buffer depended on the kinase being analyzed. For studies of PKC, 100 mM HEPES, 0.05% Triton-X100, 1 mM CaCl2, 20 mM MgCl2, 0.2 mg/ml phosphatidyl serine (Avanti Polar Lipids), PMA 100 ng/ml was typically used. The lipid stock was prepared by transferring 3 mg phosphatidyl serine into iced mixture of 450 μl water plus 50 μl of 10% Triton-X100, sonicating 10 times on ice for 1 sec each.
The kinase reaction mixture was assembled by sequential addition to a tube held on ice of: 5 μl peptide (100 μM for final concentration of 10 μM), 15 μl of kinase (typically 5 ng/well, in appropriate kinase buffer), 30 μl of ATP (1 uCi/well of ^32P-gamma ATP in a stock of 167 μM cold ATP in the kinase buffer; for final concentration for 100 μM ATP). The mixture was rapidly warmed to desired reaction temperature (30° C. for PKC) and incubated for the desired duration (usually 10 minutes). The kinase assay was terminated by transfer to 4° C. water batch, and rapid addition of an equal volume (50 μl) of stop solution [0.1M ATP+0.1M EDTA in water, pH 8].
The peptides were then captured from the reaction mixture by transfer to a Reacti-Bind Streptavidin High Binding Capacity Coated Plates (HBC) (Pierce Biotechnology) as follows. The HBC plates were pre-rinsed three times with PBS/Tween PBS/Tween20 0.05% (PBS/Tween). Part of all of the reaction mixture was then transferred wells of a HBC plate pre-filled with 90 μl of phosphate-buffered saline (PBS); typically each aliquots of each phosphorylation reaction were transferred to duplicate HBC plates to assure accuracy by additional replication
For kinase assays done at the standard peptide concentration of 10 μM, the peptide concentration in the reaction mixture becomes 5 μM after addition of the stop solution; consequently 10 μl of the reaction (50 pMoles of peptide) was transferred to the HBC plate. More generally, the amount of reaction mixture transferred was estimated to be about 50 pMoles of peptide. […] The HBC plates were incubated for 0.5 to 1.5 hr at room temperature for complete binding of biotinylated peptides to plate-bound streptavidin. The HBC plates were then washed extensively with PBS/Tween. Five washes were done routinely and additional wash steps were added if the wash solution removed from the plate had measurable radioactivity as detected using a Geiger counter. This step is essential to obtaining a good the signal to noise ratio because the fraction of radioactivity incorporated in the peptides was a tiny fraction of the total in the reaction mixture. The wells were air-dried. A volume of 40-50 μl of microScint-20 (Packard Instruments) was added to each well. The plates were covered with stick-on film sheet. Radioactive emissions were measured in a TopCount NXT Microplate Scintillation and Luminescence Counter (Packard Instruments). Typically samples were counted for 5 minutes (or more) to improve the signal to noise ratio when counts were low. […]

T1 sequence (Q05655 whole entry): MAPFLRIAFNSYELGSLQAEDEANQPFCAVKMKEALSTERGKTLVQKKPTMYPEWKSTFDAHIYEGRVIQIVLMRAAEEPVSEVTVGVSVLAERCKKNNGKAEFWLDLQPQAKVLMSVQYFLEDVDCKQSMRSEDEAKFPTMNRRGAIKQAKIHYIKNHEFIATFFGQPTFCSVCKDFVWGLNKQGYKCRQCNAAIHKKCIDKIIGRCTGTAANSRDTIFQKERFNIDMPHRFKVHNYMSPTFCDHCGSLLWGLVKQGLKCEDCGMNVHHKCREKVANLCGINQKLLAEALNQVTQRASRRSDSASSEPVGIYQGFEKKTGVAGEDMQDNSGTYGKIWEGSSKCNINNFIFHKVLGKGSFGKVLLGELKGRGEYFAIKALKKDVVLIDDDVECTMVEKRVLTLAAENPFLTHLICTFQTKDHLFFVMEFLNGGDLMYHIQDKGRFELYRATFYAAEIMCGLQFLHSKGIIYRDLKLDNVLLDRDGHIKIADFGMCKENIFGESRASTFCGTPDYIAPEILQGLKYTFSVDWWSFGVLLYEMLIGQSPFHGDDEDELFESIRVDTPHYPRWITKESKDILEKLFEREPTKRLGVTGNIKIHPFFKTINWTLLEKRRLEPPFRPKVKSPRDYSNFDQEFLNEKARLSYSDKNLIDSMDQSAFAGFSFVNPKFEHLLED

Substance	phosphorylation by PKC-delta (PKC-delta; peptide concentration 1 uM)	phosphorylation by PKC-delta (PKC-delta; peptide concentration 10 uM)	phosphorylation by PKC zeta (PKC-zeta; peptide concentration 1 uM)	phosphorylation by PKC zeta (PKC-zeta; peptide concentration 10 uM)	PKC delta phosphorylation (PKC-delta) [%]	PKC-zeta phosphorylation (PKC-zeta) [%]
160 (PFEVVWYKDKRQLRSSKKYK) [compound 160]	25	31	15	57	–	–
116 (EEGTFRSSIRRLSTRRR) [compound 116]	75	41	100	100	–	–
162 (KKKFSFKKPFKLSGLSFKRN) [compound 162]	21	13	7	4	–	–
115 (NRKKKRTSFKRKA) [compound 115]	94	99	11	10	–	–
119 (KKRFSFKKSFKLSGFSFKKN) [compound 119]	42	16	20	20	–	–
92 (DGQKRKKSLRKKLD) [compound 92]	–	–	–	–	17	2
129 (VQRHRSMRKTFARYLSFRRD) [compound 129]	32	14	51	31	–	–
123 (KKRFSFKKSFKLSGFSFKKN) [compound 123]	45	22	20	20	–	–
164 (TEGKMARVAWKGKRRSKARK) [compound 164]	18	26	3	2	–	–
84 (QKKSRLRRRASQLKI) [compound 84]	–	–	–	–	34	19
100 (WKGKRRSKARKKRK) [compound 100]	–	–	–	–	22	8
134 (RSRSRSRSKSKDKRKSRKRS) [compound 134]	44	16	5	5	–	–
86 (RQRKRKLSFRRRTDKD) [compound 86]	–	–	–	–	42	28
122 (RAITSTLASSFKRRR) [compound 122]	55	24	20	17	–	–
165 (TEEKSKKRKKKHRKNSRKHK) [compound 165]	25	19	1	2	–	–
80 (KKKKKRFSFKKSFKL) [compound 80]	–	–	–	–	24	16
139 (RPTPGDGEKRSRIKKSKKRK) [compound 139]	31	24	1	1	–	–
85 (RFARKGSLRQKNV) [compound 85]	–	–	–	–	34	56
99 (AGWRKKTSFRKPKED) [compound 99]	–	–	–	–	17	10

Substance	phosphorylation by PKC-delta (PKC-delta; peptide concentration 1 uM)	phosphorylation by PKC-delta (PKC-delta; peptide concentration 10 uM)	phosphorylation by PKC zeta (PKC-zeta; peptide concentration 1 uM)	phosphorylation by PKC zeta (PKC-zeta; peptide concentration 10 uM)	PKC delta phosphorylation (PKC-delta) [%]	PKC-zeta phosphorylation (PKC-zeta) [%]
155 (RWDKRRWRKIPKRPGSVHRT) [compound 155]	30	23	19	6	–	–
136 (RARRDSLKKIEIW) [compound 136]	41	23	6	9	–	–
163 (PPRTPGWHQLQPRRVSFRGE) [compound 163]	13	21	7	26	–	–
89 (EYLERRASRRRAV) [compound 89]	–	–	–	–	20	14
112 (KRPGKKGSNKRPGKR) [compound 112]	–	–	–	–	8	1
135 (KKKFRTPSFLKKSKK) [compound 135]	40	25	11	13	–	–
105 (ALRRPSLRREADD) [compound 105]	–	–	–	–	9	4
141 (VTDSQKRREILSRRPSYRKI) [compound 141]	43	21	26	78	–	–
106 (EILSRRPSYRKILND) [compound 106]	–	–	–	–	9	15
124 (PRLIRRGSKKRPAR) [compound 124]	69	43	45	32	–	–
137 (PSKSPSKKKKKFRTPSFLKK) [compound 137]	38	16	4	5	–	–
167 (GLPAPGEDKSIYRRGSRRWR) [compound 167]	13	24	5	37	–	–
101 (GAPPRRSSIRNAH) [compound 101]	–	–	–	–	13	3
130 (EYLERRASRRRAV) [compound 130]	46	20	36	39	–	–
121 (LRRRSLRRSNSISKSPGP) [compound 121]	80	53	60	56	–	–
118 (RPQNTLKASKKKKRASFKRK) [compound 118]	73	60	46	57	–	–
77 (KKKKRASFKRKSSKKG) [compound 77]	–	–	–	–	76	60
128 (QQVDRERPHVRRRRGTFKRS) [compound 128]	46	57	14	9	–	–
